According to patent US20190022241A1 (AbbVie / Abbott, published 2019):

How the values were obtained:
[1] = molecular target: T1, rat SEZ6 on RIN-m5F cells (rat, UniProt Q7TSK2 20-991 (mouse entry)); assay: flow cytometry, RIN-m5F cells, 5 ug/mL antibody
T1 construct: endogenous on RIN-m5F cells; also called rSEZ6
T1 chain: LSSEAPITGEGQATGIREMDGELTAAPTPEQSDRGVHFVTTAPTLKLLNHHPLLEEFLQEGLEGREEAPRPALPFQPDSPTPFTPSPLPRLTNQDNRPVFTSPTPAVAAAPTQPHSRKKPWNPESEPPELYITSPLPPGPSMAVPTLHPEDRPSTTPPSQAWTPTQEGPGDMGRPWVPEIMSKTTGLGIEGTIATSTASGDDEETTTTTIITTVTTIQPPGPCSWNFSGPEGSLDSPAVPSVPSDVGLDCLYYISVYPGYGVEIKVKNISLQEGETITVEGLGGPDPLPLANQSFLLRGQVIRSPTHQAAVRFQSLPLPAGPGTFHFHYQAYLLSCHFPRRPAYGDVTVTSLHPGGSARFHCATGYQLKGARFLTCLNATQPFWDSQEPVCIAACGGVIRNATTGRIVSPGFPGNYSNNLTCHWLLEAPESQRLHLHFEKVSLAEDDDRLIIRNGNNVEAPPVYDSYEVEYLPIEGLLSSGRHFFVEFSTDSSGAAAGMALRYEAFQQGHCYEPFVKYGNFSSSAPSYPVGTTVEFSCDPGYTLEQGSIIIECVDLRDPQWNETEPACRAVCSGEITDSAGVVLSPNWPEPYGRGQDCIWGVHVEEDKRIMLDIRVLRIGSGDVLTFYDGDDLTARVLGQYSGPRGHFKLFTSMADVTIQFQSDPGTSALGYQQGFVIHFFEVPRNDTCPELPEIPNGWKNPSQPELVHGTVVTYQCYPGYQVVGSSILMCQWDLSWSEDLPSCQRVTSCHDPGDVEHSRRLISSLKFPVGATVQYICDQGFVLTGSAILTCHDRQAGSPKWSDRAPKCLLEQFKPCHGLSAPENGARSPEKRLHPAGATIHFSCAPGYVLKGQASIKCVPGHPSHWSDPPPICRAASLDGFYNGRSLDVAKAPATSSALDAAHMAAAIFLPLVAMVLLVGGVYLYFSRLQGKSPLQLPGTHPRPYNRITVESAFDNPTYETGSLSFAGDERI
Experimental: (§1) Briefly 1×10⁵ cells per well of Neuro2a, RIN-5mF, or yeast displaying cynomolgus SEZ6 cells were incubated for 30 minutes with 50 μL PBS (2% FCS) buffer with 5 μg/mL antibody. […] After incubating for 15 minutes cells were washed twice with the PBS buffer and re-suspended in the same with DAPI for flow cytometry analysis of Neuro2a and Rin-m5F or buffer without DAPI for flow cytometric analysis of yeast cells with cSEZ6.

[2] = molecular target: T2, human SEZ6L2 ECD-His (human, UniProt Q6UXD5 28-843); assay: ELISA on plates coated with SEZ6L2 protein
T2 construct: whole entry named
T2 sequence (Q6UXD5 other isoform, or with tags, fused parts or gaps): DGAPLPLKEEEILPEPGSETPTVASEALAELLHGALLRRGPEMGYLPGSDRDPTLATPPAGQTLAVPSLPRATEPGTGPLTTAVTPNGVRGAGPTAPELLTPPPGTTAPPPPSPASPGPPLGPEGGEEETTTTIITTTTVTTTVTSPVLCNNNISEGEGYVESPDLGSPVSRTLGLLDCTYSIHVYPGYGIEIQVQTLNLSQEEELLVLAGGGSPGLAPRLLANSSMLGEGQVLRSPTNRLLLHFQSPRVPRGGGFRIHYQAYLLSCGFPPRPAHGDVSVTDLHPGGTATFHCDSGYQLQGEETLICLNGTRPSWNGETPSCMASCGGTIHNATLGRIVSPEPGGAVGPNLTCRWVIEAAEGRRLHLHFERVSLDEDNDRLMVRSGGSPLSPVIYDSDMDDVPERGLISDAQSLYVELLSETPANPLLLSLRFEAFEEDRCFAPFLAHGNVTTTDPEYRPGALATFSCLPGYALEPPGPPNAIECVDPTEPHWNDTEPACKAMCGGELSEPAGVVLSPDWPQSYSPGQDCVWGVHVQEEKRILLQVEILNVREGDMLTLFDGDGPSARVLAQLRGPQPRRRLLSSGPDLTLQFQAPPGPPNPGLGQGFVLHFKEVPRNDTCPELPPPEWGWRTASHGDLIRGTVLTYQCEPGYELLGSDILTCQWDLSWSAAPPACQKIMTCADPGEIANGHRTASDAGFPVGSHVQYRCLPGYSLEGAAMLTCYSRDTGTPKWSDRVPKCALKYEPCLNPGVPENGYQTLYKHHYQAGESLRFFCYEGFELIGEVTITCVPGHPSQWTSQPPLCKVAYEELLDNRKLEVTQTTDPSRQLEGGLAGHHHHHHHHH
Experimental: To determine cross reactivity to family member proteins, SEZ6L and SEZ6L2, an ELISA-based assay was used. Plates were coated with SEZ6, SEZ6L, or SEZ6L2 proteins at 0.2 μg/mL in PBS overnight. After washing with PBS containing 0.05% (v/v) Tween 20 (PB ST), the wells were blocked with 2% (w/v) BSA in PBS (PB SA), 100 μL/well for 1 hour at room temperature. Antibody was then added at 1 μg/mL in 100 μL PBSA for 1 hour at room temperature. After washing with PBST, 100 μL/well HRP-labeled goat anti-mouse IgG diluted 1:2,000 in PBSA for 1 hour at room temperature. […] After developing, an equal volume of 2M H₂SO₄ was added to stop substrate development and analyzed by spectrophotometer at OD 450.

[3] = molecular target: T3, extracellular domain of cynomolgus SEZ6 on yeast (cynomolgus, UniProt Q53EL9 23-925 (human entry)); assay: flow cytometry, yeast displaying cynomolgus SEZ6 ECD, 5 ug/mL antibody
T3 construct: yeast display; the whole entry is named; also called cSEZ6; cynomolgus SEZ6 ECD
T3 chain: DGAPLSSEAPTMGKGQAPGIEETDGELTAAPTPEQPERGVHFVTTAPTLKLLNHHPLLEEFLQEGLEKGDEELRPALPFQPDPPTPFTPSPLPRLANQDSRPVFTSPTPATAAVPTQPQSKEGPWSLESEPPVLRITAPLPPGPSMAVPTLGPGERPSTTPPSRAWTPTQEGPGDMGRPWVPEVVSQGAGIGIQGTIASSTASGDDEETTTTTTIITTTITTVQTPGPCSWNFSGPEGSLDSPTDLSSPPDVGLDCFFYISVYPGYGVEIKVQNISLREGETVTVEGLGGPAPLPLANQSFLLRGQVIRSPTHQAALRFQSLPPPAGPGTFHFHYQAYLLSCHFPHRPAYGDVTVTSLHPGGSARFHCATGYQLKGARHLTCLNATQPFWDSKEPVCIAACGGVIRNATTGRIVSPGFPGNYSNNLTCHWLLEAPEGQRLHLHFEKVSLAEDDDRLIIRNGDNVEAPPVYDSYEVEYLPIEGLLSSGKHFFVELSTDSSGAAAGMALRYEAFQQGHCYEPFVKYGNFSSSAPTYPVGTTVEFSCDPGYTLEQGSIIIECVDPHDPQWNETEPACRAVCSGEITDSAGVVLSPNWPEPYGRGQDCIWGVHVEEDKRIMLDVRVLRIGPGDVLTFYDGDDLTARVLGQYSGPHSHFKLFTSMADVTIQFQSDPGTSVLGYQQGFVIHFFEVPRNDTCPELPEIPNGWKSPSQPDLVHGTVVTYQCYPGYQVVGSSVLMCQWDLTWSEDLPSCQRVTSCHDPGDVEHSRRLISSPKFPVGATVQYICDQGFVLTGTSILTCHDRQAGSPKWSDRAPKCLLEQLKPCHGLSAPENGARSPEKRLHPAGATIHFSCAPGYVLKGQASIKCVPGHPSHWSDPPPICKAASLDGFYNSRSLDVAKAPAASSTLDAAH
Experimental: as §1

binding result [1] | binding result [2] | binding result [3] | Binder
binds | no binding (tested: 1 µg/mL) | binds | SC17.17 (antibody, V domains shown, murine mAb) VH: EVQLQQSGPEVMKPGASVKMSCKASGYTFTDYNMHWVKQNQGKSLEWIGEINPNIGGTGYNQKFKGKATLTVHKSSSTAYMELRSLTSEDSAVYYCARTYSYYSYEFAYWGQGTLVTVSA VL: QIVLTQSPAIMSASPGEKVTMTCSASSSVSYMHWYQQKSGTSPKRWIYDTSKLPSGVPARFSGSGSGTSYSLTISSMEAEDAATYYCQQWSSTPPTFGAGTKLELK
binds | no binding (tested: 1 µg/mL) | binds | SC17.34 (antibody, V domains shown, murine mAb) VH: EVQLQQSGPELVKPGSSVKISCKASGYTFTDYNMDWVKQSHGKRLEWIGYIYPDNGGAGYNQKFKGKATLTVDKSSSTAYMELRSLTSEDSAVYYCSRSITTAWFAYWGQGTLVTVSA VL: DIKMTQSPSSMYASLGERVTITCKASQDINSYLSWFQQKPGKSPKTLIYRANRLVDGVPSRFSGSGSGQDYSLTISSLEYEDMGIYYCLQYDEFPPTFGGGTKLEIK
